In article PMC3271731 (Nature, 2011):
Where two headings read alike, the source gives them in different places.

Columns and labels:
crystal structure [1] = target: the molecule itself; assay: crystal structure
crystal structure [2] = target: the molecule itself; assay: crystal structure; remark: listed apart in the source

Protein | stoichiometry N (crystal structure [1]) | stoichiometry N (crystal structure [2])
Pseudomonas aeruginosa 3-methylcrotonyl-CoA carboxylase β subunit (enzyme, UniProt Q9I297 1-535, looked up) MAILHTQINPRSAEFAANAATMLEQVNALRTLLGRIHEGGGSAAQARHSARGKLLVRERINRLLDPGSPFLELSALAAHEVYGEEVAAAGIVAGIGRVEGVECMIVGNDATVKGGTYYPLTVKKHLRAQAIALENRLPCIYLVDSGGANLPRQDEVFPDREHFGRIFFNQANMSARGIPQIAVVMGSCTAGGAYVPAMSDETVMVREQATIFLAGPPLVKAATGEVVSAEELGGADVHCKVSGVADHYAEDDDHALAIARRCVANLNWRKQGQLQCRAPRAPLYPAEELYGVIPADSKQPYDVREVIARLVDGSEFDEFKALFGTTLVCGFAHLHGYPIAILANNGILFAEAAQKGAHFIELACQRGIPLLFLQNITGFMVGQKYEAGGIAKHGAKLVTAVACARVPKFTVLIGGSFGAGNYGMCGRAYDPRFLWMWPNARIGVMGGEQAAGVLAQVKREQAERAGQQLGVEEEAKIKAPILEQYEHQGHPYYSSARLWDDGVIDPAQTREVLALALSAALNAPIEPTAFGVFRM | 6 | –
Pseudomonas aeruginosa 3-methylcrotonyl-CoA carboxylase α subunit (enzyme, biotinylated Lys681 (numbered by the equivalent residue of HsMCC)) MNPDYRSIQRLLVANRGEIACRVMRSARALGIGSVAVHSDIDRHARHVAEADIAVDLGGAKPADSYLRGDRIIAAALASGAQAIHPGYGFLSENADFARACEEAGLLFLGPPAAAIDAMGSKSAAKALMEEAGVPLVPGYHGEAQDLETFRREAGRIGYPVLLKAAAGGGGKGMKVVEREAELAEALSSAQREAKAAFGDARMLVEKYLLKPRHVEIQVFADRHGHCLYLNERDCSIQRRHQKVVEEAPAPGLGAELRRAMGEAAVRAAQAIGYVGAGTVEFLLDERGQFFFMEMNTRLQVEHPVTEAITGLDLVAWQIRVARGEALPLTQEQVPLNGHAIEVRLYAEDPEGDFLPASGRLMLYREAAAGPGRRVDSGVREGDEVSPFYDPMLAKLIAWGETREEARQRLLAMLAETSVGGLRTNLAFLRRILGHPAFAAAELDTGFIARHQDDLLPAPQALPEHFWQAAAEAWLQSEPGHRRDDDPHSPWSRNDGWRSALARESDLMLRCRDERRCVRLRHASPSQYRLDGDDLVSRVDGVTRRSAALRRGRQLFLEWEGELLAIEAVDPIAEAEAAHAHQGGLSAPMNGSIVRVLVEPGQTVEAGATLVVLEAMKMEHSIRAPHAGVVKALYCSEGELVEEGTPLVELDENQA | – | 3
